Among the data in PMC11997821 are stoichiometry N (RM subunits per S subunit) values, retold here.

The target in assay [1] is BsaXI S subunit (476-residue specificity subunit of R.M.BsaXI) (Bacillus stearothermophilus). In words: SEC; Superdex75 column in NEB Diluent B; pooled, separately expressed RM and S subunits after chitin, DEAE, heparin and Source columns. A general note: In gel filtration, larger molecules generally elute earlier.
Assay [2] has the same target. The assay can be described thus: single-particle EM, 2D classification of particles (negative stain and cryo-EM); DNA-free and DNA-bound BsaXI particles, twice selected.

On to “BsaXI RM subunit (916-residue RM fusion subunit of the Type IIB restriction-modification enzyme R.M.BsaXI)”, for which the stoichiometry N (RM subunits per S subunit) in assay [1] and in assay [2] was 2 in each case.
